Test results published in publication PMC7544158 (Nature structural & molecular biology, 2020).
Like-named read-outs stand apart in the source and are kept apart here. Where no end group is shown, it is not given here. The star is where a group is joined. FITC = O=C1OC2(c3ccc(O)cc3Oc3cc(O)ccc32)c2ccc(NC(=S)*)cc21

How the values were obtained:
Assay in all cases: fluorescence polarisation
[1] = molecular target: T1, BFL-1ΔC C55 (N-His6 BFL-1ΔC (1–151) bearing C4S/C19S mutations) (human, UniProt Q16548 1-151, C4S | C19S)
T1 sequence (looked up): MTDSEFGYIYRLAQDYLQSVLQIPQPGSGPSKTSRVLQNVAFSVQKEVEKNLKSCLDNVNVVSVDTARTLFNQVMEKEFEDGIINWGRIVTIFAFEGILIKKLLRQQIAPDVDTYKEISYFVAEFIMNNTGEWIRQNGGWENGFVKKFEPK

[2] = molecular target: T1, BFL-1ΔC C55 (N-His6 BFL-1ΔC (1–151) …); remark: listed apart in the source
[3] = molecular target: T1, BFL-1ΔC C55 (N-His6 BFL-1ΔC (1–151) …); remark: listed apart in the source
[4] = molecular target: T1, BFL-1ΔC C55 (N-His6 BFL-1ΔC (1–151) …); remark: listed apart in the source
[5] = molecular target: T1, BFL-1ΔC C55 (N-His6 BFL-1ΔC (1–151) …); remark: listed apart in the source

{FITC}-DIIRNIARHLAQVGDSMDRSI [FITC-BID BH3 peptide]
Kd [1]: 18.4 nM
Kd [2]: 12.3 nM
Kd [3]: 3.3 nM
Kd [4]: 1.6 nM
Kd [5]: 24.3 nM
